The results in this text go back to article PMC7958378.

The test concerns the target GmPUB13(252-630) (soybean (Glycine max)). Description: ITC. (ITC needs no label: the signal is the heat of the interaction.)

What is called Kd is the equilibrium constant for the complex coming apart.

Consider “Avr1d (purified protein for ITC and gel filtration) (natural protein)”, for which the equilibrium dissociation constant (Kd) turned out to be 89 nM.
